Results from patent US20250009799A1.

Target: SH2D3A peptide on HLA-A*02:01 (human)
Assay: T2/peptide TDCC potency screen with TCR2-T-IL12 cells, peptide titration; reference: DCAF4L2 target peptide; full-length, on cells
Details: chains Valpha:Vbeta

B1: TCR2 (protein)
chain 1: EDQVTQSPEALRLQEGESSSLNCSYTVSGLRGLFWYRQDPGKGPEFLFTLYSAGEEKEKERLKATLTKKESFLHITAPKPEDSATYLCAVQAWGGGSQGNLIFGKGTKLSVKP
chain 2: DSGVTQTPKHLITATGQRVTLRCSPRSGDLSVYWYQQSLDQGLQFLIQYYNGEERAKGNILERFSAQQFPDLHSELNLSSLELGDSALYFCASSAGDRGYEQYFGPGTRLTVT
- EC50 of peptide relative to the DCAF4L2 target peptide: 87 fold
